Measurements published in the PETadex activity labels (doi:10.1093/ismejo/wraf068).

B1: unnamed (protein)
chain: QVYEIGHTTITFNDPSRSRDIETEIYYPADVAGENVAVSTGTFPVCVFGHGFTMSVDAYENFSDVLVPQGYIILLPSTEDGFSPNHDEFGLDLAFLVDEFQLENTNGTSLFYGAIAPETALMGHSMGGGCSFLAAESNSSVTTLVNFAAAETNTSAIAAAANITIPAVVFSGEVDPVAPPADHQIPMYNALASECKTYISINDGGHCYFANYNFYCTMGEEAMMPGGPPLTREEQQQTTLDFLSIWLDYTLKGNANALTVFNDSLASSPRITYQQDCNLTILDQINPNAEFKVYPNPADQFFILESSREIKHVLIYNSMGSICLERNKRHRIDISELPEGMYVIKAITESGSFTKKIMVLH
B2: unnamed (protein)
chain: QSYEMGHRSEIYIDPSRGDRAIPTEIYYPSLTAGDDVPVADPPTGGFPVVAFAHGRMMPWDDYENIWGALAPQGFVVACPTTETGFMPNRTNFSLDLIYVISRIRLENSSATSPFYGKIGNASAVIGHSFGGVATFMAAIESDSITAIVTFASGQIDSVELAGISEPALIFAGTDDSLTPAATFQIPYYNNLGSSCKTLVNIIGGTHCHFAESSYYCDIGEAGFPPPGITRERQHELTNQFLIPWLDFMLNTDPVASDSFQTLLTTSGDILYLQDCDIMGVSRDDPTDLPGIIDLLAYPNPFNSAVRIGVERGEWRVENREIFDITGRMVAEIPAQSVIPDPDRESRGVVEGLDSRFHG
B3: unnamed (protein)
chain: APAGPYNVGYVIYDFPFVSPDGALQSLTTAVWYPTDAEPTPYTYGDGRATGLVSLDGPVSPAGRPFPLVVFSHGYGGGGTANLFLTKHLASWGFVVASPDYPDPDQMVRIRGGGTNTPILQYLRNALRLARTGLDFPFDDYAFRPAGLRTVIDQMLAQNADDTSALHGAIDPDRIAVAGHSLGTFTALSVAGLDPQWTDPRIRAVLALSGGVFMWPTQDFAQVSVPIMFMYGEREAGQRERIGLADVAALTRAAYDVCQPPKFMLEVKGGTHFTFGQRVYEERRAGGDASLPERQVAVINSYAAAFLRLYLRNDTSAAATLQQTDPMLTLYRHDM
B4: unnamed (protein)
chain: WGAQNHFYETVLVDTDENPRETHLVGQIDGVFTDENYGEYEVTIYYPAINSGVSQPPDKSGAPYPAIIFAHGWLTSKELYTWIGNYCAAQGYVTLLFSVPDPTSLEAFRQSVTGITKSIDYLLVQNQGGLLSGLINTSRIGVMGHSMGAMAVLIATTEDSRIKAAVSLAPGYFGSTTKKYVEACKSIRVPIQFQAGSLDKICPPSAVETYYNAVRIPPKEIIVINGADHIQFSDAPATLWANITLEEQHETSRKYFIAWFNYYLRDDFNYYAYLFGSEARKDMENGILSSLEYVERFDC
B5: unnamed (protein)
chain: CGGGRVTPPDSPGEQMQAELAETLPEGGGREGRESDVAEVDREGESLDQGMDAEQTLPDAIGLTEEVGESGALYEAEGEAETIDGCDLADQGGEIEAWETLPPADVQQDEQLAAGTGDPFEWGPYEIGKKDYDFYDIQRMRLVPTTVWYPALPSGQSKAKYLLVVQGKAYVEPPAEPSGAPYPLVLFSHGYGGTRFQSVSYTEYLASHGYVVAAMDHIGNTFLDFFSDDAKVAQIALERPKDVRFVYQELVKLSNSGDGVMGGMVDQDRVAVTGHSFGGYTALVVAGAEIDVSEAIAACQSGAVSDIFCAYVEYWPAGEVIKLDPPIPGVQAAIYLAPGGYSAFGDQGLAAVKVPSMIFGGTLDDTCSVAVEIEPIYQALPPPKIEVLIQNGGHMSFTNLCDLPFAQFYLDKYCDVEGMIPAQQAFAVTNGLSVAFLDLYLKGVDAAAQYLTQEAVDEEFGYVELKAE
B6: unnamed (protein)
chain: CGSDDDSAPGSPAGNEPFYAPDELGPFAVGRSTFTIVDADRGDRELPVDVWYPVDPEEATGAPSLYQVSILVWIFPLVFTTPSEVALDSPPVSEARRFPLIVFSHGSGGLRYQSFFLTEILASHGFVVVAPSHVGNTLLDEINGTFAPLTDMMVARPLDVSYLITRMLEKNEDAADPLYGTIDADRIGVCGHSFGGFTSLAMAAGFGADPPPDLDPEIPEDLEPVPPDPRVDAIVPIAPASSWFGDSELAGIDVPTLIIGGTLDTTTPIATENVRPYEMIPAPVFRADLDGAVHFSFSNSCDLIQGMREKGIPQALIDALLGAEFTAPCNPPSLDVEEAHRITNLYTVSLFETFLEDDSRYEKYLTEAYAEASEPNVTFYANPD
B7: unnamed (protein)
chain: QSYQIGHTSIIYYDANRSNREIPTEIYYPAENEGDNVPVADPYSDGFPVISFGHGRMTTWSAYENIWSVLVQEGYIVAFACTEMSFIPNHTEFGLDIAFLVNRIQAEGIDSTSLFHGKIGTTSAVMGHSMGGATCFLSAQGNETITAITSFVSGNTSPSPIDAAVDITIPALLFSGSDDYMTPAEEYQIPIYEALNSDCKTLISITGGNHCQFAEYDYYCDTMEDNYPEPALTREEQHEVTNRFFISWVNFNLKGDFGAWYEFEDSLMTSEAITYMHDCDVTSVLEEPSETNIFMEYGLSNHPNPFNLTTTIKYELPKSAHISLKIYNISSKLIKTLVDEKENTGYNSVIWDGKDENGNPVPSGIYLYNIEIDGRVFSETKRMILLK
B8: unnamed (protein)
chain: SRTRQILTEIYYPADTAGEEVPVAEPGAEGFPAVSFAHGRRMAWSAYSNFWEMLAPQGYIIVFPCTEMGLSPNHLDFALDCLFDAHKLQELNDLGTSIFYQKVGDTFAVTGHSMGGVVSFIAAIEDPTVTAIANFACGQASSYDLASVTAPALIFAGSDDYMTPVDQYQLLFYNELSSTCKALLILQGANHCQYAQYTSVCDDIEDQYPDPALTRTQQHAVTSTLLIPWLDYMLKGDEEAWTEFNVLAGDGDVTETHMICDLPFNTPTPASPPTPFVPATSSGGIGTLIVVISGTLALLSSRRK
B9: unnamed (protein)
chain: MSRAFSFASVAALLVFFAASIWLARLDKGGPPHTELMLEGEVPATLYLPGDGEHREAFLDAPPRDERPPAVVMMHGFSGDRLSMSGISRRLAESGYAVLNIDARGHGQNRNPFSSSWAAPDLFYPDLLAAVEFLRAYPFVDGSRIAVMGHSMGAGASLDYASRDSAIGAAVLVSGGWRIQGPHRPPNTLFLYATGDPERIRGRSRQLAAGLAGVNDPEVGRTYGDPTRGDAVRLAEVAGADHQTIVWREAAVRETVAWLDATFGVARSPGPVPDDPRAPLLPLIWAAFLLVMVGLGQVVGRLVPAQPYRPGGGRIAGLAAIAAAFALTMPLLALGTPGFILSMEVGDVFVSHFALAGIVLLVAIRMREPELIDSLFAPRLLPTLIGAAVGTIGVFTLMRVFEPVMHRLTLTPERFLVFVMAALGLLPLALAFNLLLRRGTTAGATLTSLAGRVLVLLVLFAGVQVGILSMVMLFMLPALGFVCLQFEVLAAAIYASSRNLLALSLIDAAWLAMVIAAIMPIRI
B10: unnamed (protein)
chain: CTDNADTDGADGAEGSATEEGGTEESGKESGEESKADLAALAAEVEEPGPWAVGTTTVETTGARDRQLPVQVWYPVDTAVAATAEPATYDFPGIEVPAGAVTGASPAPGPFPLVIYSHGNGGLRYVSSFLAEHMASHGFVVMAPDHVGNTALDTFLGSRDETDQVAEDRPVDVQAVIDAATSGQAGLEEVSPVVDGEEVAVIGHSFGGYTALALASRQAEGDDSLDAIVGLAPASSGVDDTTLEAVGVPTLLISGTLDETTPIEEDTLRPAELVSGRPLVRADIDGAGHQSFTDVCDYLGIAESQPDLPAALVEAPQEYALEGCAPELIVIDEAQRITNRLVTAFLLETLYADDSWSPLLSPGAEEGQPLALLERED
B11: unnamed (protein)
chain: MTKVNFQNKEEKRIVGILSIPKGKGPYPAVIFCHGLGSSKESPLIKTVSKKVRQVGFATFTFDCLGSRESDPYHSTAGITKRLSDLDAAIDFLAKHPRVDAERMGLYGHSLGGSVALVQASRDKRIKTAVLISPVIDFRRTGLRPINKKHMDEWDKREEILTINRKNKIVFRIPWDFFVDITSYDFVDIARKVACPVMIIHGTQDSLVPIQQSQILCQNLKNSELISLPWQKHFTRTTRKRKEAIVNSIFWFNKYLKKSATPSN
B12: unnamed (protein)
chain: CGKDGGIMTQDVEFTSDDGVLLKGTLYLPAGISEKLPGVTLAHMNMNDRTSWAYYAEKLALEGYVVLAFDLRGWGESGGESDFHEMYRDVMAAVTYLANFGKVDRNRIASAGASMGGMASVIAASRTSSIKAVATVSSPPAWSESEPVKVIGKLPPRPVLVIAGSSDPHLDLRAARMLFLAAKEPRQWLEIKTNKHGTDIFATPQGVELERALAMFFAENLKDSGRSSTTEKDGK

These proteins were tested on BHET (assay: Proxy for plastic degradation [HPLC-UV] (mmol)). Settings: pH 8.
B1 was tested, and the “Proxy for plastic degradation” value was 0. In the case of B2, the “Proxy for plastic degradation” value is reported as 0. In the case of B3, the “Proxy for plastic degradation” value is reported as 0. B4 was tested, and the “Proxy for plastic degradation” value was 0. With B5 the “Proxy for plastic degradation” value was 0.05. With B6 the “Proxy for plastic degradation” value was 0. B8 was tested, and the “Proxy for plastic degradation” value was 0. B9 was tested, and the “Proxy for plastic degradation” value was 0. In the case of B10, the “Proxy for plastic degradation” value is reported as 0. B11 was tested, and the “Proxy for plastic degradation” value was 0.1. With B12 the “Proxy for plastic degradation” value was 0.

The proteins below were run on PET (assay: Proxy for plastic degradation [HPLC-UV] (mmol)). Settings: pH 8; 30 °C.
In the case of B1, the “Proxy for plastic degradation” value is reported as 0. B2 was tested, and the “Proxy for plastic degradation” value was 0. For B3, the “Proxy for plastic degradation” value was 0. With B4 the “Proxy for plastic degradation” value was 0. B5 was tested, and the “Proxy for plastic degradation” value was 0. With B6 the “Proxy for plastic degradation” value was 0. With B7 the “Proxy for plastic degradation” value was 0. In the case of B8, the “Proxy for plastic degradation” value is reported as 0. B9 was tested, and the “Proxy for plastic degradation” value was 0. For B10, the “Proxy for plastic degradation” value was 0. For B11, the “Proxy for plastic degradation” value was 0. For B12, the “Proxy for plastic degradation” value was 0.

Same assay, conditions: pH 8; 60 °C
In the case of B1, the “Proxy for plastic degradation” value is reported as 0. B2 was tested, and the “Proxy for plastic degradation” value was 0. For B3, the “Proxy for plastic degradation” value was 0. In the case of B5, the “Proxy for plastic degradation” value is reported as 0. In the case of B6, the “Proxy for plastic degradation” value is reported as 0. In the case of B7, the “Proxy for plastic degradation” value is reported as 0. B8 was tested, and the “Proxy for plastic degradation” value was 0. With B9 the “Proxy for plastic degradation” value was 0. In the case of B10, the “Proxy for plastic degradation” value is reported as 0. For B11, the “Proxy for plastic degradation” value was 0. In the case of B12, the “Proxy for plastic degradation” value is reported as 0.

Same assay, conditions: pH 6
In the case of B4, the “Proxy for plastic degradation” value is reported as 0.11.

Same assay, conditions: pH 6.5
For B4, the “Proxy for plastic degradation” value was 0.96.

Same assay, conditions: pH 7
With B4 the “Proxy for plastic degradation” value was 0.47.

Same assay, conditions: pH 7.5
For B4, the “Proxy for plastic degradation” value was 0.4.

Same assay, conditions: pH 8; 40 °C
For B4, the “Proxy for plastic degradation” value was 0.39.

Same assay, conditions: pH 8; 50 °C
In the case of B4, the “Proxy for plastic degradation” value is reported as 2.78.

Same assay, conditions: pH 8; 70 °C
With B4 the “Proxy for plastic degradation” value was 0.05.

Same assay, conditions: pH 8; 80 °C
For B4, the “Proxy for plastic degradation” value was 0.04.
